The source of these data is PMC6999842 (mAbs, 2020).

The target in assay [1] is T1, human A33 transmembrane glycoprotein expressed on stably transfected murine colorectal carcinoma cells (Homo sapiens (Human)., UniProt Q99795). Nature of the assay: flow cytometry on cells. (Flow cytometry measures light scatter and fluorescence of single cells or particles in a stream.)
The target of assay [2] is A33 in human colon and human colon adenocarcinoma tissue sections (Homo sapiens (Human)., UniProt Q99795). As to the kind of experiment: immunostaining of cells or tissue.
Chain of A33 in human colon and human colon adenocarcinoma tissue sections (Q99795 22-319): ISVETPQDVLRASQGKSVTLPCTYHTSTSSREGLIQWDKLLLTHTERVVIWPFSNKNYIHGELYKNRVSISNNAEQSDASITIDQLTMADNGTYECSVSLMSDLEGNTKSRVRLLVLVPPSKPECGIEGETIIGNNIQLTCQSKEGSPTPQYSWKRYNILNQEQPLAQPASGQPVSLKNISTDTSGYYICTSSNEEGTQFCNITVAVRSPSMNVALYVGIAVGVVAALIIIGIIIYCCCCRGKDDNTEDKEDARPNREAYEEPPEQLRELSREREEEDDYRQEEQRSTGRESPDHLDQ
Assay [3] has as its target T1, human A33 transmembrane glycoprotein …. As to the kind of experiment: immunostaining of cells or tissue.

T1 sequence (Q99795 22-319): as above

B1: IgG2a(K), murine anti-A33 antibody K in murine IgG2a format (antibody, V domains shown)
VH: EVKLVESGGGLVKPGGSLKLSCAASGFAFSTYDMSWVRQTPEKRLEWVATISSGGSYTYYLDSVKGRFTISRDSARNTLYLQMSSLRSEDTALYYCAPTTVVPFAYWGQGTLVTVSA
VL: DIVMTQSQKFMSTSVGDRVSITCKASQNVRTVVAWYQQKPGQSPKTLIYLASNRHTGVPDRFTGSGSGTDFTLTISNVQSEDLADYFCLQHWSYPLTFGSGTKLEVK
In the case of B1, the binding result in assay [1] and in assay [2] was “binds” in each case.

B2: FITC-labeled IgG2a(K) (antibody, V domains shown)
VH: B1 VH
VL: B1 VL
Consider B2, for which, in assay [3], the binding result is “binds”.

B3: FITC-labeled IgG2a(MG) (antibody, V domains shown)
VH: QVQLQQSGPELVKPGASVKISCKASGYTFSGSWMNWVKQRPGQGLEWIGRIYPGDGETNYNGKFKDKATLTADKSSTTAYMELSSLTSVDSAVYFCARIYGNNVYFDVWGAGTTVTVSS
VL: QIVLTQSPAIMSASPGERVTMTCSARSSISFMYWYQQKPGSSPRLLIYDTSNLASGVPVRFSGSGSGTSYSLTISRMEAEDAATYYCQQWSSYPLTFGSGTKLELK
For the molecule B3, the binding result in assay [3] was “binds”.
